Like-named read-outs stand apart in the source and are kept apart here.
What was measured:
Assay in all cases: two-hybrid library CCmax;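 also: natural log of median RNA to DNA barcode read ratio; higher means stronger binding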
P6-AA-1HAA-E = target: T1, P6-AA-1HAA-E; details: mean of both orientations
T1 chain: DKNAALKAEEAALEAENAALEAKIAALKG

P6-AA-1HAA-L = target: T2, P6-AA-1HAA-L; details: mean of both orientations
T2 chain: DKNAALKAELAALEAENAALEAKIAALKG

P6-AA-1HAA-D = target: T3, P6-AA-1HAA-D; details: mean of both orientations
T3 chain: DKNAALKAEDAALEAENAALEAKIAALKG

P6-AA-1HAA-Y = target: T4, P6-AA-1HAA-Y; details: mean of both orientations
T4 chain: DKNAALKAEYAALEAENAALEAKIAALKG

P6-AA-1HAA-R = target: T5, P6-AA-1HAA-R; details: mean of both orientations
T5 chain: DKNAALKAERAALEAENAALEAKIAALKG

P6-AA-1HAA-V = target: T6, P6-AA-1HAA-V; details: mean of both orientations
T6 chain: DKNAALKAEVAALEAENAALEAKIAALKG

P6-AA-1HAA-S = target: T7, P6-AA-1HAA-S; details: mean of both orientations
T7 chain: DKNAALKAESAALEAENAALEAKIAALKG

P6-AA-1HAA-H = target: T8, P6-AA-1HAA-H
T8 chain: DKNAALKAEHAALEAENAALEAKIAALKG

P6-AA-1HAA-N = target: T9, P6-AA-1HAA-N; details: mean of both orientations
T9 chain: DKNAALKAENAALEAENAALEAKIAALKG

P6-AA-1HAA-K = target: T10, P6-AA-1HAA-K; details: mean of both orientations
T10 chain: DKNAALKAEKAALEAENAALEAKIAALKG

P6-AA-1HAA-T = target: T11, P6-AA-1HAA-T; details: mean of both orientations
T11 chain: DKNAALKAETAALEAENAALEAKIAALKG

P2-AA-12HAA-H = target: T12, P2-AA-12HAA-H
T12 chain: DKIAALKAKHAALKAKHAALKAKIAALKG

P2-AA-12HAA-D = target: T13, P2-AA-12HAA-D; details: mean of both orientations
T13 chain: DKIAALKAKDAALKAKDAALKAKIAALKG

P2-AA-12HAA-L = target: T14, P2-AA-12HAA-L; details: mean of both orientations
T14 chain: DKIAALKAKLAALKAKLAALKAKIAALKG

P2-AA-12HAA-Y = target: T15, P2-AA-12HAA-Y; details: mean of both orientations
T15 chain: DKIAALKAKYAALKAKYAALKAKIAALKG

P2-AA-12HAA-S = target: T16, P2-AA-12HAA-S; details: mean of both orientations
T16 chain: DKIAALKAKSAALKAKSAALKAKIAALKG

P2-AA-12HAA-V = target: T17, P2-AA-12HAA-V; details: mean of both orientations
T17 chain: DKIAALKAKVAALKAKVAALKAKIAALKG

P2-AA = target: T18, P2-AA; details: mean of both orientations
T18 chain: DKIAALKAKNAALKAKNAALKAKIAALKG

P2-AA-12HAA-I = target: T19, P2-AA-12HAA-I; details: mean of both orientations
T19 chain: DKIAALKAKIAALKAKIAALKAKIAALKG

P2-AA-12HAA-E = target: T20, P2-AA-12HAA-E; details: mean of both orientations
T20 chain: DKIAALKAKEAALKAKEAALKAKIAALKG

P2-AA-12HAA-T = target: T21, P2-AA-12HAA-T; details: mean of both orientations
T21 chain: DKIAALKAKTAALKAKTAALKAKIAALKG

P2-AA-12HAA-R = target: T22, P2-AA-12HAA-R; details: mean of both orientations
T22 chain: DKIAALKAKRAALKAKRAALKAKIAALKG

P2-AA-12HAA-K = target: T23, P2-AA-12HAA-K; details: mean of both orientations
T23 chain: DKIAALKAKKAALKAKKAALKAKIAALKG

Row | Binder | interaction score (P6-AA-1HAA-E) | interaction score (P6-AA-1HAA-L) | interaction score (P6-AA-1HAA-D) | interaction score (P6-AA-1HAA-Y) | interaction score (P6-AA-1HAA-R) | interaction score (P6-AA-1HAA-V) | interaction score (P6-AA-1HAA-S) | interaction score (P6-AA-1HAA-H; mean of both orientations) | interaction score (P6-AA-1HAA-N) | interaction score (P6-AA-1HAA-K) | interaction score (P6-AA-1HAA-T) | other results
1 | DENAALEAKLAALKAKNAALKAEIAALEG [P5-AA-1HAA-L] | 1.45 | 2.49 | -0.436 | 1.93 | 1.43 | 2.31 | 1.85 | 1.55 | 1.66 | 1.78 | 2.08 | –
2 | DENAALEAKRAALKAKNAALKAEIAALEG [P5-AA-1HAA-R] | -0.332 | 2.18 | -0.756 | 0.0514 | -1.22 | 2.18 | 0.434 | – | 1.85 | -0.713 | 1.54 | interaction score (P6-AA-1HAA-H): -0.333
3 | DEIAALEAEHAALEAEHAALEAEIAALEG [P1-AA-12HAA-H] | – | – | – | – | – | – | – | – | – | – | – | interaction score (P2-AA-12HAA-H; mean of both orientations): -0.35; interaction score (P2-AA-12HAA-D): -1.24; interaction score (P2-AA-12HAA-L): 1.83; interaction score (P2-AA-12HAA-Y): -0.416; interaction score (P2-AA-12HAA-S): 1.07; interaction score (P2-AA-12HAA-V): 1.78; interaction score (P2-AA): 1.85; interaction score (P2-AA-12HAA-I): 1.75; interaction score (P2-AA-12HAA-E): 0.0438; interaction score (P2-AA-12HAA-T): 1.16; interaction score (P2-AA-12HAA-R): -0.0784; interaction score (P2-AA-12HAA-K): 0.96
4 | DEIAALEAEIAALEAEIAALEAEIAALEG [P1-AA-12HAA-I] | – | – | – | – | – | – | – | – | – | – | – | interaction score (P2-AA-12HAA-H): 1.79; interaction score (P2-AA-12HAA-D): 1.29; interaction score (P2-AA-12HAA-L): 2.28; interaction score (P2-AA-12HAA-Y): 1.87; interaction score (P2-AA-12HAA-S): 2.16; interaction score (P2-AA-12HAA-V): 1.79; interaction score (P2-AA): 1.8; interaction score (P2-AA-12HAA-I): 2.05; interaction score (P2-AA-12HAA-E): 1.58; interaction score (P2-AA-12HAA-T): 1.75; interaction score (P2-AA-12HAA-R): 2; interaction score (P2-AA-12HAA-K): 1.78
5 | DENAALEAKHAALKAKNAALKAEIAALEG [P5-AA-1HAA-H] | -0.637 | 1.9 | -0.238 | 0.439 | -1.13 | 2.15 | 0.88 | -0.596 | 1.97 | -0.495 | 1.49 | –
6 | DENAALEAKTAALKAKNAALKAEIAALEG [P5-AA-1HAA-T] | 0.317 | 1.91 | -0.594 | 1.19 | 0.322 | 2.01 | 0.78 | 1.47 | 0.702 | 0.498 | 0.456 | –
7 | DENAALEAKEAALKAKNAALKAEIAALEG [P5-AA-1HAA-E] | -1.42 | 0.711 | -1.78 | -0.801 | -1.33 | 1.57 | -1.13 | -1.76 | -0.649 | -1.41 | -0.112 | –
